# Results as given in patent US20040229242, “Methods of capturing, detecting and quantifying RNA:DNA hybrids and a modified RNase H useful therein” (published 2004).
# T1: RNase H1 D94G/D134A mutant (Escherichia coli, UniProt P0A7Y4 SEQ:1-155)
# T1 chain: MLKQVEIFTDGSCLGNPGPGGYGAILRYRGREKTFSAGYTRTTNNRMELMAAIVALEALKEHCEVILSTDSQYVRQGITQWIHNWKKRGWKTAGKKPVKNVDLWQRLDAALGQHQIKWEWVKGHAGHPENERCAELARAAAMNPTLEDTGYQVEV
# T2: E. coli RNase H1 D134A (nuclease-deficient parent) (Escherichia coli) (UniProt P0A7Y4)
# T2 sequence: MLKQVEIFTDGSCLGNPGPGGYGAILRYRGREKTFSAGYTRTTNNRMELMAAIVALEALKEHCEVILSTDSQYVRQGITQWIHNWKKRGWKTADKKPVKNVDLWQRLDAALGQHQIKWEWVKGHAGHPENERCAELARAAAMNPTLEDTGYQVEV
# T3: E. coli RNase H1 D134A (nuclease-deficient parent) (Escherichia coli, UniProt P0A7Y4 SEQ:1-155)
# T3 chain: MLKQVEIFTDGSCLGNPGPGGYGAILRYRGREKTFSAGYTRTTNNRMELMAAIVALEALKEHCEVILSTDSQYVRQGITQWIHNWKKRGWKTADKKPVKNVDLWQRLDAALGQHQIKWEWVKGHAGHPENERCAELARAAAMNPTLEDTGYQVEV
# Tests used:
# [1] = target: T1, RNase H1 D94G/D134A mutant; assay: competition; settings: 25 C
# [2] = target: T2, E. coli RNase H1 D134A (nuclease-deficient parent) (Escherichia coli); assay: competition; settings: 25 C
# [3] = target: T1, RNase H1 D94G/D134A mutant; assay: filter; 50 mM NaCl, 1 mM EDTA, HEPES pH 7.0, 25 C
# [4] = target: T3, E. coli RNase H1 D134A …; assay: filter; 50 mM NaCl, 1 mM EDTA, HEPES pH 7.0, 25 C; settings: label: 32P
# [5] = target: T3, E. coli RNase H1 D134A …; assay: FP filter; nitrocellulose filter binding; 50 mM NaCl, 1 mM EDTA, 20 mM HEPES pH 7.0, 25 C; settings: label: 32P end label on DNA strand
# Protocol: In the experiment, serial dilutions of the indicated RNase H proteins were individually incubated in 1×FB Buffer [100 μg/ml BSA; 50 mM NaCl; 1 mM EDTA; 20 mM HEPES, pH 7.0] with a radiolabeled RNA:DNA hybrid of the following sequence:
# After 30 minutes incubation at 25° C., the 50 μl reactions were filtered quickly through buffer-equilibrated nitrocellulose filters and washed twice with 500 μl Wash Buffer [10% Glycerol, 50 mM NaCl; 1 mM EDTA; 20 mM HEPES, pH 7.0]. […] The amount of RNA:DNA hybrid retained by each filter was directly quantitated from the damp filters by Cerenkov counting. Each protein was tested in triplicate and the results averaged. Control filters to determine total input radioactivity were used to calculate the percent of total input hybrid bound. SDS-PAGE and densitometry re-confirmed protein concentrations.
# [6] = competition vs RNA:DNA#1, filter binding
# [7] = competition vs RNA:DNA#2, filter binding
# [8] = competition vs RNA:DNA#3, filter binding
molecule,measurement,setting,value
heat-denatured sheared salmon sperm ssDNA,IC50,[1]; [6],9000 nM
same,IC50,[1]; [7],15000 nM
same,IC50,[1]; [8],10000 nM
same,IC50,[2]; [6],1700 nM
same,IC50,[2]; [7],5500 nM
same,IC50,[2]; [8],2900 nM
RNA:DNA#2 (DNA:RNA) RNA: GGCGAACAGGACUGCGUAUGAUAGG DNA: CCTATCATACGCAGTCCTGTTCGCC,Kd,[3]; label: 32P,6 nM
same,Kd,[4],8 nM
RNA:DNA#1 (DNA:RNA) RNA: GGACCGGAAAGGUACGAGCAUGUGA DNA: TCACATGCTCGTACCTTTCCGGTCC,Kd,[3]; label: 32P end label on DNA strand,5.1 nM
same,Kd,[5],10 nM
RNA:DNA#3 (DNA:RNA) RNA: AGUUCGACGAGCAUGGAGAGGUCAG DNA: CTGACCTCTCCATGCTCGTCGAACT,Kd,[3]; label: 32P,5.5 nM
same,Kd,[4],8 nM
